Test results: PMC9799976

What was measured:
[1] = target: full-length human dynein complex (heavy chain with SNAP-tag, IC, LIC, Tctex, LC8, Robl) (human) (UniProt Q14204); assay: single-molecule TIRF microscopy; 10 nM JIP3 (Halo-JF646) on surface-attached MTs, without or with 1 nM dynein; dwell time of JIP3 on MT-bound dynein
[2] = target: full-length human dynein complex (heavy chain with SNAP-tag, IC, LIC, Tctex, LC8, Robl) (human) (UniProt Q14204)
[3] = target: tail-truncated single-headed human dynein (amino acids 1320-4646 of DYNC1H1), N-terminal GFP (human) (UniProt Q14204)
Chain of tail-truncated single-headed human dynein (amino acids 1320-4646 of DYNC1H1), N-terminal GFP (human) (Q14204 1320-4646): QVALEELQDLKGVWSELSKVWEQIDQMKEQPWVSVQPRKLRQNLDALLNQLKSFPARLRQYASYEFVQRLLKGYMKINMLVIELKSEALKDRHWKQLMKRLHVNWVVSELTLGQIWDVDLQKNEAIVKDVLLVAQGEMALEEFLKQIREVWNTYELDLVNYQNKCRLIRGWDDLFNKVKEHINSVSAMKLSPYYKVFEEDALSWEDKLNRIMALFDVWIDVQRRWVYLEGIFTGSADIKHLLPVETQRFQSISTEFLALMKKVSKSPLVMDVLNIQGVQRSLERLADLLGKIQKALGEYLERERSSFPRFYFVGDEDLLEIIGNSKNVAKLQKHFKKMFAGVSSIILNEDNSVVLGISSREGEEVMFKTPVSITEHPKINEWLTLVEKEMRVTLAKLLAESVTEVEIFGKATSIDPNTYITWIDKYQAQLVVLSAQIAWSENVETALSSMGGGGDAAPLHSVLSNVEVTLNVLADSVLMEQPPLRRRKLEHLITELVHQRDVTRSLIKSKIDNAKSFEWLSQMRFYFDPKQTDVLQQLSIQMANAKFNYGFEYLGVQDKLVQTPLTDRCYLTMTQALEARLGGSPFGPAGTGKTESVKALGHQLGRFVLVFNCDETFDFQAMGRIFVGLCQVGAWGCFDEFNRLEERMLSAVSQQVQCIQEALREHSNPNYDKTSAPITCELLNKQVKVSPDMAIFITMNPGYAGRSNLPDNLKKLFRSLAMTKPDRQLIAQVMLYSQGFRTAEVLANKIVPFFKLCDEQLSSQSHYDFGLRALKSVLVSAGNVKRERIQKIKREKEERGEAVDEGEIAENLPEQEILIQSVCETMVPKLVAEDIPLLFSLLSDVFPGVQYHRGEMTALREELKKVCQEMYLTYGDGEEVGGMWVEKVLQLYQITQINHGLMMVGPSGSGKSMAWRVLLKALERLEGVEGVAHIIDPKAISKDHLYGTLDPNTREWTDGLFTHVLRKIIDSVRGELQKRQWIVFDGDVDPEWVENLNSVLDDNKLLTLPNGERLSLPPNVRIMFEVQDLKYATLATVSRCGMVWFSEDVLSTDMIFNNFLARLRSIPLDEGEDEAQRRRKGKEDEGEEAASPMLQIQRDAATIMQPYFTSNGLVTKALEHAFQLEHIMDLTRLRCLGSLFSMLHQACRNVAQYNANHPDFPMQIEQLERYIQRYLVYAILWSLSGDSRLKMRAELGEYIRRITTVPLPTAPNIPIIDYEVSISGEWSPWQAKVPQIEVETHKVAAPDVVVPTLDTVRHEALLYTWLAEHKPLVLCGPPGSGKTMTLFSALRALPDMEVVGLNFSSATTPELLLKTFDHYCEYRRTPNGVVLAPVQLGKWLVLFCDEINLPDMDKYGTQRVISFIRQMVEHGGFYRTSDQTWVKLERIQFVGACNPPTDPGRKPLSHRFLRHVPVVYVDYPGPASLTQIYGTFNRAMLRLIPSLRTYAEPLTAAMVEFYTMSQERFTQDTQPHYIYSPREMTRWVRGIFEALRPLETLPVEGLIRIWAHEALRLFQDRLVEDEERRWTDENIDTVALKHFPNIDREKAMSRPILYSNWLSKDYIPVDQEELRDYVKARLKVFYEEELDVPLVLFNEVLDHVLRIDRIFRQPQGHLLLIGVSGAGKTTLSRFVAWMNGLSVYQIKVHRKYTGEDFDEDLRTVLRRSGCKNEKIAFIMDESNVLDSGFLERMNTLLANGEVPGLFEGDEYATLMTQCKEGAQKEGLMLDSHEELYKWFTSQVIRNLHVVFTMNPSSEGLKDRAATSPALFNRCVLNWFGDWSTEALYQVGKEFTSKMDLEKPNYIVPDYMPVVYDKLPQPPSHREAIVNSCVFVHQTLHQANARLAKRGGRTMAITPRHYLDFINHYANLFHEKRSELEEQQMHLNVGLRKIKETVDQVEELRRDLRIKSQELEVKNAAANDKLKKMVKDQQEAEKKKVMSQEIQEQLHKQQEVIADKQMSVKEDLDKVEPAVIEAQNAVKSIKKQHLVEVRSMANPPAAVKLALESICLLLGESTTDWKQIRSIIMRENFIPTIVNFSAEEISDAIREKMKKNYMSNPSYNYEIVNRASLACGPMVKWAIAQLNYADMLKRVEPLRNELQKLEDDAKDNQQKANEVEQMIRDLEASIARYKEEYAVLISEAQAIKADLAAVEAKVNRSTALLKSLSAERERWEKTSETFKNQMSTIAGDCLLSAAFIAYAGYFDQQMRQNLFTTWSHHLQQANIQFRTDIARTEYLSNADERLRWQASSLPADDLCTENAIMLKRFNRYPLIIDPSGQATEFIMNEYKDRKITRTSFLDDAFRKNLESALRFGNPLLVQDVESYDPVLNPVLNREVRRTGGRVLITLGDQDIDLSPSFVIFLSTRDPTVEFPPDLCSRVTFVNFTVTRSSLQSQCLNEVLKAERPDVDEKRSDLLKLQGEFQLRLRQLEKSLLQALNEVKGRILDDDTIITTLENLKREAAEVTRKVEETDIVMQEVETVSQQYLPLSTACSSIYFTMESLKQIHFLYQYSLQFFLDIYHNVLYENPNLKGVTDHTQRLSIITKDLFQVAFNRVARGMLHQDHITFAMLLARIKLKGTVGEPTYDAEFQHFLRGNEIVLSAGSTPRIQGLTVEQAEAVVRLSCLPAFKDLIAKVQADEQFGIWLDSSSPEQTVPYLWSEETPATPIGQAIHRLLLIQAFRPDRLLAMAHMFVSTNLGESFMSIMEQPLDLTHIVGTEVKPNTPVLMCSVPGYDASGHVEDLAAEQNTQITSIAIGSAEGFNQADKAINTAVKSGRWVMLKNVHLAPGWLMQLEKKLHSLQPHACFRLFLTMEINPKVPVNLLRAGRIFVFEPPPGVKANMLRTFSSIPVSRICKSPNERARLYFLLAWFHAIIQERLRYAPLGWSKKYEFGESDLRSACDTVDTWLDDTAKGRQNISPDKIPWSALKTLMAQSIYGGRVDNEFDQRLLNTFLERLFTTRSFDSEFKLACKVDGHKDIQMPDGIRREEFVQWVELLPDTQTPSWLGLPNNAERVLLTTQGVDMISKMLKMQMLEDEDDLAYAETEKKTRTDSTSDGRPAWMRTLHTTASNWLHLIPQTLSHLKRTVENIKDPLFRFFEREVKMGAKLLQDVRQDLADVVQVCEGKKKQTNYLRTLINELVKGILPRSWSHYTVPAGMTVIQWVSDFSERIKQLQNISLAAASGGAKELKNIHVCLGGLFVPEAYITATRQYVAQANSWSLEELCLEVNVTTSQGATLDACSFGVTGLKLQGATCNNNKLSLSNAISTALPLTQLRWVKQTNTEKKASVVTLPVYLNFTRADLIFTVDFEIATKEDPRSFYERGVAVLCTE

B1: mouse JIP3 (amino acids 1-240; cloned as 3-240) with C-terminal HaloTag (domain or fragment)
chain: EIQMDEGGGVVVYQDDYCSGSVMSERVSGLAGSIYREFERLIHCYDEEVVKELMPLVVNVLENLDSVLSENQEHEVELELLREDNEQLLTQYEREKALRKQAEEKFIEFEDALEQEKKELQIQVEHYEFQTRQLELKAKNYADQISRLEERESEMKKEYNALHQRHTEMIQTYVEHIERSKMQQVGGSGQTESSLPGRSRKERPTSLNVFPLADGMVRAQMGGKLVPAGDHWHLSDLG
modifications: Halo-JF646 on the HaloTag
- dwell time of JIP3 on dynein [1]: 0.42 s

B2: full-length DCX with a C-terminal ybbR-tag (DCX-ybbR) (natural protein)
chain: MELDFGHFDERDKTSRNMRGSRMNGLPSPTHSAHCSFYRTRTLQALSNEKKAKKVRFYRNGDRYFKGIVYAVSSDRFRSFDALLADLTRSLSDNINLPQGVRYIYTIDGSRKIGSMDELEEGESYVCSSDNFFKKVEYTKNVNPNWSVNVKTSANMKAPQSLASSNSAQARENKDFVRPKLVTIIRSGVKPRKAVRVLLNKKTAHSFEQVLTDITEAIKLETGVVKKLYTLDGKQVTCLHDFFGDDDVFIACGPEKFRYAQDDFSLDENECRVMKGNPSATAGPKASPTPQKTSAKSPGPMRRSKSPADSGNDQDANGTSSSQLSTPKSKQSPISTPTSPGSLRKHKDLYLPLSLDDSDSLGDSM
modifications: CoA-CF488 or CoA-JF549 on the ybbR-tag
- velocity of DDJ motor complexes on MTs with 10 nM DCX (DDJ only: 0.76 [0.65, 0.89] µm/s) [2]: 0.62 µm/s

B3: N-DCX with a C-terminal ybbR-tag (N-DCX-ybbR) (domain or fragment)
chain: MELDFGHFDERDKTSRNMRGSRMNGLPSPTHSAHCSFYRTRTLQALSNEKKAKKVRFYRNGDRYFKGIVYAVSSDRFRSFDALLADLTRSLSDNINLPQGVRYIYTIDGSRKIGSMDELEEGESYVCSSDNFFKKVEYTKNVNPNWSVNVKTSANMKAPQSLASSNSAQARENKDFVRPKLVTIIRSGVKPRKAVRVLLNKKTAHSFEQVLTDITEAIKLETGVVKKLYTLDGKQVTCLHDFFGDDDVFIACGPEKFRYAQDDFSLDENE
modifications: CoA-CF488 or CoA-JF549 on the ybbR-tag
- velocity of MT gliding powered by surface-bound single-headed dynein with 10 nM N-DCX, not significantly changed (without N-DCX: 0.59 [0.56, 0.63] µm/s) [3]: 0.58 µm/s
- velocity of DDJ motor complexes on MTs with 10 nM N-DCX (DDJ only: 0.76 [0.65, 0.89] µm/s) [2]: 0.54 µm/s
